Experimental data reported in US8048433B2, “Deacylation of LPS in gram negative bacteria” (priority 2004, dated 2011).

Tests used:
[1] = In vitro modification assay with refolded or membrane-localized PagL (Tricine-SDS-PAGE); assay type: biochemical; conditions: purified N. meningitidis LPS
Protocol: Refolded PagL(Pa)(−) (10 mg/ml) or cell envelopes isolated from E. coli BL21 Star™ (DE3) containing the empty vector pET-11a or the pPagL plasmids were diluted 10 fold in double distilled water. 4 μl of the diluted refolded protein or cell envelope solution was incubated in 50 mM Hepes (pH 8.0), 0.1% Triton X-100, 0.5 M NaCl, and 0.75 nmol N. meningitidis L3-LPS in a final volume of 10 μl at 37° C. for 16 h. To test whether the reaction was dependent on divalent cations, 5 mM EDTA was added into the reaction with the refolded PagL(Pa)(−). The reactions were terminated by boiling in sample buffer (28), after which the samples were treated with 0.5 mg/ml proteinase K for 1 hour at 55° C., followed by 10 min incubation at 95° C. The samples were diluted 25 fold by adding sample buffer, after which 2 μl of the samples were analysed by Tricine-SDS-PAGE (see above).

E. coli LPS = assay: In vivo modification of E. coli LPS by PagL expressed in E. coli BL21 Star (DE3) (Tricine-SDS-PAGE, GC/MS, ESI-MS); assay type: cell-based; conditions: GC/MS and ESI-MS data
Protocol: To LPS-containing samples 0.5 mg/ml proteinase K (end concentration) was added to the sample buffer (28). The samples were incubated for 60 min at 55° C., followed by 10 min at 95° C. to inactivate proteinase K. The samples was then diluted 10 fold by adding sample buffer, after which 2 μl of the sample were applied to a Tricine-SDS-PAGE gel (30). The bromophenol blue was allowed to run into the separating gel at 35 V, after which the voltage was increased to 105 V. After the front reached the bottom of the gel, the samples were left running for another 45 min. The gels were fixed overnight in water/ethanol/acetic acid 11:8:1 (v/v/v) and subsequently stained with silver as described (31).
LPS was isolated using the hot phenol/water extraction method (3). […]
To study whether the cloned PagL homologs were active on E. coli LPS, IPTG was added to exponentially growing E. coli BL21 Star™ (DE3) cells containing the empty vector pET-11a or the pPagL plasmids, and after various incubation periods, samples equivalent to one OD600 unit were collected and their LPS content was analyzed by Tricine-SDS-PAGE. […]
Structural Analysis of PagL-Modified LPS: to determine its fatty acid content, LPS was isolated from bacteria that were grown in the presence of 10 mM MgCl2 to suppress PhoP/PhoQ-regulated modifications of lipid A and analyzed by GC/MS. […]

B. pertussis LPS = assay: Expression of PagL and PagP in B. pertussis strain Tohama, lipid A analysed by ESI-MS and Tricine-SDS-PAGE; assay type: cell-based; conditions: for relative abundance of lipid A molecular ions: palmitoylate: Table III total of palmitoylated species
Protocol: LPS was isolated using the hot phenol/water extraction method (Westphal and Jann, Methods Carbohydr. Chem. 5; 83-91, 1965) with slight modifications. In short, bacteria were grown in THIJS medium in the presence of 1 mM IPTG (end concentration) for 64 h. Cells were harvested by centrifugation and resuspended in 40 mM sodium phosphate buffer (pH 7.0) containing 5 mM EDTA. The cells were treated overnight with lysozyme at 4° C., after which an equal volume of phenol was added. The suspension was heated to 70° C., incubated for 30 min while shaking, and subsequently cooled to 10° C., after which phases were separated by centrifugation for 10 min at 8,000×g. The upper phase was collected and the extraction was repeated after adding an equal volume of distilled water to the lower phase. The two upper phases were combined, dialysed against tap water until the phenol odour disappeared, freeze-dried, and subsequently taken up in distilled water. The LPS was subsequently pelleted by centrifugation for 3 h at 150,000×g and dissolved in distilled water, after which the LPS concentration was determined by analysing the 3-hydroxytetradecanoic acid content, using a 6890 Agilent gas chromatograph, as described (Welch, Clin. Microbiol. Rev. 1991). For ESI-MS, a 200 μl aliquot of isolated LPS (50 nmol/ml) was freeze-dried and taken up in 0.1 ml 2% acetic acid. The mixture was heated for 2 h at 95° C. to hydrolyse the LPS and release the lipid A moiety. Subsequently, the mixture was cooled to room temperature and centrifuged for 10 min at 16,100×g. The pellet was washed twice in 0.1 ml double-distilled water, taken up in 0.1 ml double-distilled water, and 0.3 ml chloroform/methanol (2:1, v/v) was added. After vigorous vortexing, phases were separated by centrifugation for 10 min at 16,100×g. The […] phase was then used for structural analysis of purified lipid A by nanoelectrospray tandem MS on a Finnigan LCQ in the negative ion mode (Wilm and Mann, Anal. Chem. 1996).
To express PagP and PagL in B. pertussis strain Tohama, the pagL gene of B. bronchiseptica (pagL(Bb)) and the pagP gene of B. pertussis (pagP(Bp)) were expressed from the broad-host range low-copy number expression vector pMMB67EH. As a control, a strain expressing the pagP gene of E. coli (pagP(Ec)) was also constructed. LPS was isolated from wild-type, PagP-expressing, or PagL-expressing B. pertussis strain Tohama and analysed by Tricine-SDS-PAGE. LPS isolated from the PagL(Bb)-expressing strain appeared unaffected on the gel, whereas that from the PagP-expressing appeared potentially modified, since a band with a lower electrophoretic mobility than that of wild-type B. pertussis LPS was detected (FIG. 14). Furthermore, as compared to the PagP(Bp)-expressing strain, the modification-efficiency appeared higher in the PagP(Ec)-expressing strain (FIG. 14). To evaluate the possible LPS modifications in further detail, the lipid A moieties of the strains were analysed by ESI-MS in the negative-ion mode. […] The peak at m/z 1557 represents the characteristic penta-acylated bis-phosphate species that is typically found in B. pertussis (Caroff et al., Microbes. Infect., 1994), whereas the peak at m/z 1477 corresponds to a penta-acylated mono-phosphate species. The two remaining peaks at m/z 1307 and 1251 represent deacylated lipid A species of the molecular ion at m/z 1477, which miss the primary 3-hydroxydecanoic acid residue at the 3 position or a primary 3-hydroxytetradecanoic acid residue (either at the 2 or the 3′ position), respectively. […] Furthermore, the large majority of lipid A species are mono-phosphate forms (˜80%). […]

[2] = B. pertussis strain Tohama, ESI-MS

B1: PagL(Pa)(−): P. aeruginosa PagL without its signal sequence, refolded in vitro from inclusion bodies and purified (protein, UniProt Q9HVD1 24-173, looked up)
Lipid A deacylase PagL: ADVSAAVGATGQSGMTYRLGLSWDWDKSWWQTSTGRLTGYWDAGYTYWEGGDEGAGKHSLSFAPVFVYEFAGDSIKPFIEAGIGVAAFSGTRVGDQNLGSSLNFEDRIGAGLKFANGQSVGVRAIHYSNAGLKQPNDGIESYSLFYKIPI
in vitro deacylation of LPS in the presence of EDTA ([1]; 5 mM EDTA, FIG. 13B): deacylation of LPS was still observed
in vitro modification of externally added LPS ([1]; 37° C., detergent-containing buffer, FIG. 13): converted into a form with a higher electrophoretic mobility

B2: PagL(Bb): lipid A 3-O-deacylase PagL of B. bronchiseptica, SEQ ID No. 1 (protein, listed as Bordetella sp.)
chain: MQFLKKNKPLFGIVTLALACATAQAQPTQGGVSLHYGIGDHYQRVTLNYETPTLWSHQFGGNWGRLDLTPELGASYWWADGSRSPGHVWQASAIPMFRWWTGERFYIEAGIGATVFSSTSFADKRIGSAFQFGDHIGLGFLLTPSNRIGLRYSHFSNAGIKEPNPGLDIVQLTYTYQF
lipid A deacylase activity (E. coli LPS): active lipid A deacylases
relative content of lipid A species that miss the 3-hydroxydecanoic acid residue at their 3 position (B. pertussis LPS; B. pertussis strain Tohama, ESI-MS peak heights): more than 92%
relative abundance of lipid A molecular ions: palmitoylate (B. pertussis LPS; [2]): 0.0
lipid A 3-O-deacylase activity in B. pertussis (B. pertussis LPS; B. pertussis strain Tohama, pMMB67EH expression, ESI-MS): active in B. pertussis

B3: PagL(Pa): PagL homolog (lipid A 3-O-deacylase) of P. aeruginosa, SEQ ID No:6 (protein, listed as Pseudomonas aeruginosa)
chain: MKKLLPLAVLAALSSVHVASAQAADVSAAVGATGQSGMTYRLGLSWDWDKSWWQTSTGRLTGYWDAGYTYWEGGDEGAGKHSLSFAPVFVYEFAGDSIKPFIEAGIGVAAFSGTRVGDQNLGSSLNFEDRIGAGLKFANGQSVGVRAIHYSNAGLKQPNDGIESYSLFYKIPI
lipid A deacylase activity (E. coli LPS): active lipid A deacylases

B4: PagP(Ec): palmitoyl transferase PagP of E. coli, expressed in B. pertussis as a control (protein, UniProt P37001 26-186, looked up)
Lipid A palmitoyltransferase …: NADEWMTTFRENIAQTWQQPEHYDLYIPAITWHARFAYDKEKTDRYNERPWGGGFGLSRWDEKGNWHGLYAMAFKDSWNKWEPIAGYGWESTWRPLADENFHLGLGFTAGVTARDNWNYIPLPVLLPLASVGYGPVTFQMTYIPGTYNNGNVYFAWMRFQF
share of the total lipid A population palmitoylated (B. pertussis LPS; B. pertussis strain Tohama expressing PagP, ESI-MS): ~47%
relative abundance of lipid A molecular ions: palmitoylate (B. pertussis LPS; [2]): 46.5
modification-efficiency (B. pertussis LPS; Tricine-SDS-PAGE of B. pertussis LPS, compared to the PagP(Bp)-expressing strain, FIG. 14): higher
